Data from patent US20040058394A1 (Biogen, published 2004).
Substitutions are numbered along the chain they refer to. Names may count otherwise.

B1: L2/V93A H2 (VL#2 with the V93A variant of VH#2) (antibody, V domains shown)
VH: EVQLVESGGGLVKPGGSLRLSCAASGFTFSDYYMYWFRQAPGKGLEWVATISDGGSYTYYPDSVKGRFTISRDNAKNSLYLQMSSLRAEDTAVYYCAREENGNFYYFDYWGQGTTVTVSS
VL: DIQMTQSPSSLSASVGDRVTITCKAGQDIKSYLSWYQQKPWKAPKILIYYATRLADGVPSRFSGSGSGTDYTLTISSLQPEDFATYYCLQHGESPWTFGGGTKLEIK
notes: Human IgG1 / kappa constant regions; also called pAND072/pAND090
B2: L2/H3 (VL#2 with VH#3) (antibody, human IgG1, V domains shown)
VH: B1 VH with F37V
VL: B1 VL
notes: Mix and match co-transfection; Human IgG1 / kappa constant regions; also called pAND072/pAND077
B3: L3/H2 (VL#3 with VH#2) (antibody, human IgG1, V domains shown)
VH: B1 VH with A97V
VL: B1 VL with W41G, I46L
notes: Mix and match co-transfection; Human IgG1 / kappa constant regions; also called pAND076/pAND073
B4: huCBE11 #1 (VL#1 with VH#1) (antibody, human IgG1, V domains shown)
VH: B1 VH with A40T, V93M, A97V
VL: B1 VL with Q3K, T69Q
notes: also called pAND068/pAND069
B5: huCBE11 #2 (VL#2 with VH#2) (antibody, human IgG1, V domains shown)
VH: B1 VH with A97V
VL: B1 VL
notes: also called huCBE#2; pAND072/pAND073
B6: huCBE11 #3 (VL#3 with VH#3) (antibody, human IgG1, V domains shown)
VH: B1 VH with F37V
VL: B1 VL with W41G, I46L
notes: also called pAND076/pAND077
B7: huCBE11 #4 (VL#3 with VH#4) (antibody, human IgG1, V domains shown)
VH: B1 VH
VL: DIQMTQSPSSLSASVGDRVTITCKAGQDIKSYLSWYQQKPGKAPKLLIYYATRLADGVPSRFSGSGSGTDYTLTISSLQPEDFATYYCLQHGESPWTFGGGTKLEIKR
notes: Full mature chains with human IgG1 and kappa constant domains; also called hCBE11; pAND076/pAND090
B8: chimeric CBE11 (chCBE11) (antibody, V domains shown)
VH: B1 VH with R19K, A40T, G42E, G44R, S78N, R87K, A88S, V93M, A97V
VL: DIKMTQSPSSMYASLGERVTITCKAGQDIKSYLSWYQQKPWKSPKILIYYATRLADGVPSRFSGSGSGQDYSLTISSLESDDTATYYCLQHGESPWTFGGGTKLEIK
notes: the latter is followed; also called pEAG982/pEAG983

target: T1, lymphotoxin beta receptor (LT-β-R) (human, UniProt P36941 31-435); experiment: FACS staining of HT-29 cells with conditioned medium, PE anti-human IgG
T1 construct: whole, on cells; also called LT-β receptor
T1 sequence (P36941 31-435): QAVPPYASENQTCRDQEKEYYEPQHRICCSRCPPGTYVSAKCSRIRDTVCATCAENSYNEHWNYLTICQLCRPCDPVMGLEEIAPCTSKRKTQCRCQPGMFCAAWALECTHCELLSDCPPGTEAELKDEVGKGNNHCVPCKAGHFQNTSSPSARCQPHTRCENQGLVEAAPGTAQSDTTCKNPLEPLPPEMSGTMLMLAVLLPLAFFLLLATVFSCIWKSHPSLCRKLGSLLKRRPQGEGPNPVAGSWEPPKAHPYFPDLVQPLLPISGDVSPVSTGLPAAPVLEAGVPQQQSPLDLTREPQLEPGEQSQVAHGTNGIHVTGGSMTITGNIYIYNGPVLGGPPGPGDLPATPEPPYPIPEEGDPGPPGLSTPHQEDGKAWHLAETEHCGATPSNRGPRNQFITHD
Description: Expression vectors were co-transfected into 293-EBNA cells and transfected cells were tested for antibody secretion and specificity (empty vector-transfected cells served as negative control). […] To examine the individual contributions of each of these changes, new heavy chain expression vectors were constructed. Plasmid pAND089, the F37V variant of VH#2, was made by subcloning the 311 bp NotI-PstI fragment from pAND075, the 126 bp PstI-HindIII fragment from pAND071, and the 1.21 kb HindIII-NotI fragment from the plasmid pEAG964 into the NotI site of the pCEP4 EBV expression vector-derived plasmid pCH269. Plasmid pAND090, the V93A variant of VH#2, was made by subcloning the 311 bp NotI-PstI fragment from pAND071, the 126 bp PstI-HindIII fragment from pAND075, and the 1.21 kb HindIII-NotI fragment from the plasmid pEAG964 into the NotI site of the pCEP4 EBV expression vector-derived plasmid pCH269. These H2/H3 chimeric heavy chains were co-transfected into 293-EBNA cells with VL#2 or VL#3. […] The pAND076 and pAND090 pairing was designated huCBE11 #4 (Table 1 supra).
Conditioned medium from transiently transfected cells was used to stain HT-29 cells by incubating for 30 min on ice, washing cells twice with FACS buffer (PBS with 5% FBS and 0.05% sodium azide), staining with PE-conjugated anti-human IgG (H+L), Jackson ImmunoResearch Laboratories, Inc., for 30 min on ice in FACS buffer, washing cells twice with FACS buffer, and resuspending in FACS buffer for analysis.

Row | Binder | Relative MFI
1 | B1 | 0.75 MFI normalized to chCBE11
2 | B2 | 0.42 MFI normalized to chCBE11
3 | B3 | 1 MFI normalized to chCBE11
4 | B4 | 1 MFI normalized to chCBE11
5 | B5 | 1 MFI normalized to chCBE11
6 | B6 | 0.62 MFI normalized to chCBE11
7 | B7 | 1 MFI normalized to chCBE11
8 | B8 | 1 MFI normalized to chCBE11

target: T1, lymphotoxin beta receptor (LT-β-R); experiment: FACS titration on HT-29 cells, 4°C, non-specific binding subtracted, four parameter fit (functional affinity)
Description: HuCBE11 #4 anti-LTβR antibody and humanized anti-CD40L as a negative control were diluted in PBS and a 12 point serial 1:4 dilution was made to a final concentration range of 2.37 pM-10 μM. 100 μL cell suspension and 100 μL antibody dilution were added together to each well of a 96 well V-bottom microtiter plate. The antibody and the cells were incubated at 4° C. for 2 hours. The plate was centrifuiged at 1000 rpm (110×g) for 10 minutes at 4° C. The supernatant was discarded and the cell pellet was washed with cold PBS six times.
Goat-anti human IgG-phycoerythrin conjugate (Jackson Immunoresearch) was diluted 1:100 in PBS and 200 μL was added to each well. The cells were incubated with this secondary antibody for one hour at 4° C., centrifuged as described above, and washed once in cold PBS. The cells were then transferred to polystyrene test tubes. Fluorescence intensity was measured on a FACS Calibur instrument (Beckton Dickinson).
These specific fluorescence intensity values were then plotted against huCBE11 #4 concentrations on a log scale. The resulting curve is bell shaped and symmetrical, and reflects self-inhibition of the antibody binding at high concentrations. The left half of this curve was fit to a four parameter equation to find the functional affinity of the antibody. The resulting curve fit gives an EC₅₀ value of 60 pM for the huCBE11 #4 binding to HT-29 cells.

Row | Binder | EC50 [pM]
9 | B7 | 60
